Here are results for 4 substances from patent US10004792B2, “Peptides and combination of peptides for use in immunotherapy against various cancers” (immatics biotechnologies GmbH, priority 2015, dated 2018).

The target in assay [1] is HLA-A*02 (Homo sapiens, UniProt P04439, D140Y/D185E/D98H/E176V/E277Q/G131W/G231S/I119V/I121R/I166T/I218V/L300P/N151K/N90K/P208A/P217A/Q86G/Q94H/R138H/R169H). In words: MHC binding assay (UV-ligand exchange, beta2m ELISA), HLA-A*02. Particulars: peptide exchange yield, binding to HLA-A*02, UV-ligand exchange, β2m ELISA. The source says:
Candidate peptides for T cell based therapies according to the present invention were further tested for their MHC binding capacity (affinity). The individual peptide-MHC complexes were produced by UV-ligand exchange, where a UV-sensitive peptide is cleaved upon UV-irradiation, and exchanged with the peptide of interest as analyzed. Only peptide candidates that can effectively bind and stabilize the peptide-receptive MHC molecules prevent dissociation of the MHC complexes. To determine the yield of the exchange reaction, an ELISA was performed based on the detection of the light chain (β2m) of stabilized MHC complexes. The assay was performed as generally described in Rodenko et al. (Rodenko et al., 2006).
96 well MAXISorp plates (NUNC) were coated over night with 2 ug/ml streptavidin in PBS at room temperature, washed 4× and blocked for 1 h at 37° C. in 2% BSA containing blocking buffer. Refolded HLA-A*02:01/MLA-001 monomers served as standards, covering the range of 15-500 ng/ml. Peptide-MHC monomers of the UV-exchange reaction were diluted 100 fold in blocking buffer. Samples were incubated for 1h at 37° C., washed four times, incubated with 2 ug/ml HRP conjugated anti-62m for 1 h at 37° C., washed again and detected with TMB solution that is stopped with […]. Absorption was measured at 450 nm. Candidate peptides that show a high exchange yield (preferably higher than 50%, most preferred higher than 75%) are generally preferred for a generation and production of antibodies or fragments thereof, and/or T cell receptors or fragments thereof, as they show sufficient avidity to the MHC molecules and prevent dissociation of the MHC complexes.
Background: ELISA stands for enzyme-linked immunosorbent assay.

For assay [2], the system named is CD8+ T cells. In words: In vitro immunogenicity: T-cell priming with aAPCs loaded with peptide/MHC and anti-CD28, multimer staining. The format is cell-based, human. Particulars: in vitro immunogenicity of HLA class I peptides; peptide-specific multimer staining after aAPC priming of CD8+ T cells. An excerpt: In order to obtain information regarding the immunogenicity of the TUMAPs of the present invention, the inventors performed investigations using an in vitro T-cell priming assay based on repeated stimulations of CD8+ T cells with artificial antigen presenting cells (aAPCs) loaded with peptide/MHC complexes and anti-CD28 antibody.
In order to perform in vitro stimulations by artificial antigen presenting cells loaded with peptide-MHC complex (pMHC) and anti-CD28 antibody, the inventors first isolated CD8+ T cells from fresh HLA-A*02 leukapheresis products via positive selection using CD8 microbeads (Miltenyi Biotec, Bergisch-Gladbach, Germany) of healthy donors obtained from the University clinics Mannheim, Germany, after informed consent.
PBMCs and isolated CD8+ lymphocytes were incubated in T-cell medium (TCM) until use consisting of RPMI-Glutamax (Invitrogen, Karlsruhe, Germany) supplemented with 10% heat inactivated human AB serum (PAN-Biotech, Aidenbach, Germany), 100 U/ml Penicillin/100 μg/ml Streptomycin (Cambrex, Cologne, Germany), 1 mM sodium pyruvate (CC Pro, Oberdorla, Germany), 20 µg/ml Gentamycin (Cambrex). 2.5 ng/ml IL7 (PromoCell, Heidelberg, Germany) and 10 U/ml IL-2 (Novartis Pharma, Nurnberg, Germany) were also added to the TCM at this step.
Generation of pMHC/anti-CD28 coated beads, T-cell stimulations and readout was performed in a highly defined in vitro system using four different pMHC molecules per stimulation condition and 8 different pMHC molecules per readout condition.
The purified co-stimulatory mouse IgG2a anti human CD28 Ab 9.3 (Jung et al., 1987) was chemically biotinylated using Sulfo-N-hydroxysuccinimidobiotin as recommended by the manufacturer (Perbio, Bonn, Germany). Beads used were 5.6 μm diameter streptavidin coated polystyrene particles (Bangs Laboratories, Illinois, USA).
pMHC used for positive and negative control stimulations were A*0201/MLA-001 (peptide […] (SEQ ID NO. 303) from modified Melan-A/MART-1) and A*0201/DDX5-001 ([…] from DDX5, SEQ ID NO. 304), respectively.
800.000 beads/200 μl were coated in 96-well plates in the presence of 4×12.5 ng different biotin-pMHC, washed and 600 ng biotin anti-CD28 were added subsequently in a volume of 200 μl. Stimulations were initiated in 96-well plates by co-incubating 1×10^6 CD8+ T cells with 2×10^5 washed coated beads in 200 μI TCM supplemented with 5 ng/ml IL-12 (PromoCell) for 3 days at 37° C. Half of the medium was then exchanged by fresh TCM supplemented with 80 U/ml IL-2 and incubating was continued for 4 days at 37° C. This stimulation cycle was performed for a total of three times. For the pMHC multimer readout using 8 different pMHC molecules per condition, a two-dimensional combinatorial coding approach was used as previously described (Andersen et al., 2012) with minor modifications encompassing coupling to 5 different fluorochromes. Finally, multimeric analyses were performed by staining the cells with Live/dead near IR dye (Invitrogen, Karlsruhe, Germany), CD8-FITC antibody clone SK1 (BD, Heidelberg, Germany) and fluorescent pMHC multimers. For analysis, a BD LSRII SORP cytometer equipped with appropriate lasers and filters was used. Peptide specific cells were calculated as percentage of total CD8+ cells. Evaluation of multimeric analysis was done using the FlowJo software (Tree Star, Oreg., USA). In vitro priming of specific multimer+CD8+ lymphocytes was detected by comparing to negative control stimulations.

Turning to “249 (GLCERLVSL; listed as Homo sapiens) [compound 249]”, the Peptide exchange result in assay [1] was “++++ (>=75% = ++++)”. In addition, in assay [2], the “Wells positive [%]” value is reported as “+ (<20% = +)”.

Take “4 (KLMPGTYTL; listed as Homo sapiens) [compound 4]”: the Peptide exchange entry in assay [1] is reported as “++++ (>=75% = ++++)”. The “Wells positive [%]” value in assay [2] is reported as “+ (<20% = +)”.

On to “12 (GLLPLLHRA; listed as Homo sapiens) [compound 12]”, for which the Peptide exchange entry in assay [1] is “++++ (>=75% = ++++)”. For the same substance, in assay [2], the “Wells positive [%]” value is reported as “++++ (>=70% = ++++)”.

Regarding “84 (ALCPRIHEV; listed as Homo sapiens) [compound 84]”, the Peptide exchange result in assay [1] is recorded as “++++ (>=75% = ++++)”.
